The target of assay [1] is Schizosaccharomyces pombe RNA polymerase I (Schizosaccharomyces pombe (endogenous in S. pombe)) (UniProt P15398). As to the kind of experiment: cryo-EM structure; dimer particles in the 'monomer' dataset of BS3-crosslinked Sp Pol I after SEC (5 mM HEPES pH 7.8, 1 mM MgCl2, 10 µM ZnCl2, 150 mM KCl, 5 mM DTT); C2 symmetry imposed; 4.5 Å; model by placing two monomers and rigid body fitting of subdomains.

The target is the same in assay [2]. Kind of assay: negative-stain EM with 2D classification; peak fraction of the analytical SEC in high-salt buffer S1500 (1.5 M KAc); uranyl formate; 20,054 particles classified into 16 classes.
Assay [3] shares this target. As to the kind of experiment: negative-stain EM with 2D classification; peak fraction of the analytical SEC in low-salt buffer S300 (300 mM KAc); uranyl formate; 24,462 particles classified into 16 classes.

Usually stoichiometry N stands for the number of molecules, sites or subunits per partner or assembly. Substance “Schizosaccharomyces pombe RNA polymerase I, P15398 1-1689; Q9P7X8 1-1174; O94616 1-348; Q09177 1-125; O43036 1-173; Q9P7P1 1-147; O94703 1-119; Q09191 1-210; P36595 1-142; Q92399 1-125; O13877 1-71; P48011 1-63; O14086 1-425; Q9USZ4 1-251” came in with a stoichiometry N in assay [1] of 2. In addition, in assay [2], the percent of Pol I molecules in a dimeric state amounted to 49% and the percent of identified particles in a dimeric state stood at 32%. Further, the percent of particles in a dimeric state in assay [3] is under 2%.
